Measurements: the supplement of paper PMC10724198
± gives the standard deviation of the averaged measurements.

What was measured:
Saccharomyces cerevisiae [1] = assay: protein stability index of tFT-peptide fusion (C-terminal peptide) (PSI (0-1 scale)); higher = more stable (slower turnover)
Procedure: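 MPS profiling in S. cerevisiae of the tFT-X12 degron library: putative degron peptides plus stable controls, 12 aa, fused to the C-terminus of a sfGFP-mCherry timer. Cells are FACS-sorted into 8 mCherry/sfGFP bins and deep-sequenced. PSI runs from 0 (unstable) to 1 (stable). Backgrounds are wild type, das1Δ and doa10Δ at 30 °C, and wild type, das1Δ, cdc34-1 and cdc53-1 at 37 °C; 2-3 technical replicates each.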

Saccharomyces cerevisiae [2] = assay: as above; conditions: genetic background: wild type; temperature: 30 C
[3] = genetic background: cdc34-1, temperature: 37 C
[4] = genetic background: cdc53-1, temperature: 37 C
[5] = genetic background: das1 deletion, temperature: 30 C
[6] = genetic background: das1 deletion, temperature: 37 C
[7] = genetic background: doa10 deletion, temperature: 30 C
[8] = genetic background: wild type, temperature: 30 C
[9] = genetic background: wild type, temperature: 37 C
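Also: PSI is a weighted mean of sequencing reads over stability bins, variants kept only with over 10 reads, mCherry proximal and sfGFP distal, peptide attached via GGGS linker.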

Row | Sequence | protein stability index (Saccharomyces cerevisiae [1]; [3]) | protein stability index (Saccharomyces cerevisiae [1]; [4]) | protein stability index (Saccharomyces cerevisiae [1]; [5]) | protein stability index (Saccharomyces cerevisiae [1]; [6]) | protein stability index (Saccharomyces cerevisiae [1]; [7]) | protein stability index (Saccharomyces cerevisiae [1]; [8]) | protein stability index (Saccharomyces cerevisiae [1]; [9]) | protein stability index (Saccharomyces cerevisiae [2])
1 | LCVFRFFLFFFL | 0.35 ± 0.012 | 0.371 ± 0.034 | 0.327 ± 0.032 | 0.461 ± 0.012 | 0.364 ± 0.019 | 0.291 ± 0.027 | 0.427 ± 0.016 | 0.402 ± 0.054
2 | RSPVVVFAVLLF | 0.438 ± 0.072 | 0.481 ± 0.034 | 0.341 ± 0.036 | 0.524 ± 0.016 | 0.35 ± 0.037 | 0.35 ± 0.029 | 0.505 ± 0.0057 | 0.423 ± 0.018
3 | FAKRVARVAREH | 0.677 ± 0.052 | 0.725 ± 0.018 | 0.6452 ± 0.0051 | 0.726 ± 0.012 | 0.17 ± 0.024 | 0.219 ± 0.0058 | 0.383 ± 0.014 | 0.33 ± 0.021
4 | VDFCLLFLLLLV | 0.427 ± 0.041 | 0.442 ± 0.0072 | 0.349 ± 0.034 | 0.482 ± 0.032 | 0.425 ± 0.027 | 0.331 ± 0.02 | 0.462 ± 0.014 | 0.432 ± 0.025
5 | WACAWRGMVKVG | 0.202 ± 0.021 | 0.245 ± 0.0068 | 0.232 ± 0.034 | 0.38 ± 0.0041 | 0.0812 ± 0.0095 | 0.0897 ± 0.021 | 0.0811 ± 0.0041 | 0.156 ± 0.018
6 | VMLVISRLLLLF | 0.465 ± 0.058 | 0.523 ± 0.0094 | 0.455 ± 0.033 | 0.613 ± 0.018 | 0.111 ± 0.0019 | 0.105 ± 0.017 | 0.168 ± 0.018 | 0.174 ± 0.021
7 | RGGVCFVVWCGG | 0.46 ± 0.03 | 0.503 ± 0.095 | 0.435 ± 0.0077 | 0.475 ± 0.029 | 0.4305 ± 0.00076 | 0.432 ± 0.0053 | 0.441 ± 0.0061 | 0.429
8 | LSLGVGSDAEGG | 0.687 ± 0.06 | 0.736 ± 0.015 | 0.64 ± 0.02 | 0.743 ± 0.031 | 0.646 ± 0.021 | 0.645 ± 0.007 | 0.712 ± 0.0096 | 0.549 ± 0.17
9 | IPFRRCFWFFWV | 0.537 ± 0.029 | 0.7 ± 0.011 | 0.593 ± 0.035 | 0.6909 ± 0.0044 | 0.143 ± 0.014 | 0.167 ± 0.024 | 0.204 ± 0.027 | 0.2345 ± 0.0012
10 | ACCGVFFFFFWL | 0.403 ± 0.029 | 0.479 ± 0.018 | 0.366 ± 0.031 | 0.414 ± 0.016 | 0.363 ± 0.0061 | 0.35 ± 0.02 | 0.433 ± 0.031 | 0.404 ± 0.018
11 | VWLFCLSRLYLL | 0.298 ± 0.039 | 0.383 ± 0.007 | 0.38 ± 0.03 | 0.4939 ± 0.0043 | 0.143 ± 0.015 | 0.101 ± 0.023 | 0.114 ± 0.011 | 0.206 ± 0.052
12 | LLAVIVWIVPPA | 0.241 ± 0.01 | 0.35 ± 0.0085 | 0.233 ± 0.023 | 0.423 ± 0.0079 | 0.204 ± 0.0016 | 0.222 ± 0.028 | 0.39 ± 0.0093 | 0.304 ± 0.042
13 | SPPPLFLIVLHL | 0.495 ± 0.0063 | 0.562 ± 0.028 | 0.446 ± 0.021 | 0.639 ± 0.012 | 0.4 ± 0.021 | 0.371 ± 0.048 | 0.52 ± 0.018 | 0.4283 ± 0.0032
14 | GRCGGPRSLGVG | 0.562 ± 0.036 | 0.589 ± 0.022 | 0.52 ± 0.022 | 0.5989 ± 0.001 | 0.5493 ± 0.0022 | 0.538 ± 0.012 | 0.5853 ± 0.0057 | 0.547 ± 0.07
15 | RLARRGGGWGPG | 0.681 ± 0.012 | 0.7334 ± 0.0049 | 0.657 ± 0.034 | 0.706 ± 0.022 | 0.657 ± 0.034 | 0.67 ± 0.046 | 0.7281 ± 0.00042 | 0.5 ± 0.1
16 | WEPILLELELCV | 0.498 ± 0.035 | 0.497 ± 0.026 | 0.395 ± 0.03 | 0.487 ± 0.023 | 0.327 ± 0.021 | 0.388 ± 0.013 | 0.538 ± 0.068 | 0.4357 ± 0.0036
17 | WHFMVFFCFCVD | 0.295 ± 0.04 | 0.399 ± 0.061 | 0.317 ± 0.036 | 0.406 ± 0.0098 | 0.28 ± 0.0047 | 0.277 ± 0.023 | 0.355 ± 0.028 | 0.381 ± 0.024
18 | VVWLFGVSWCWL | 0.429 ± 0.018 | 0.5093 ± 0.0025 | 0.355 ± 0.022 | 0.525 ± 0.006 | 0.313 ± 0.011 | 0.34 ± 0.03 | 0.518 ± 0.015 | 0.419 ± 0.0056
19 | SFCVLLQFCVLV | 0.412 ± 0.0095 | 0.432 ± 0.0084 | 0.351 ± 0.021 | 0.461 ± 0.011 | 0.336 ± 0.0041 | 0.3381 ± 0.0012 | 0.4258 ± 0.0029 | 0.0186 ± 0.026
20 | RPGRWFCFLYCV | 0.382 ± 0.063 | 0.4311 ± 0.002 | 0.418 ± 0.022 | 0.532 ± 0.011 | 0.163 ± 0.01 | 0.141 ± 0.017 | 0.233 ± 0.0093 | 0.185 ± 0.005

Row | Sequence | protein stability index (Saccharomyces cerevisiae [1]; [3]) | protein stability index (Saccharomyces cerevisiae [1]; [4]) | protein stability index (Saccharomyces cerevisiae [1]; [5]) | protein stability index (Saccharomyces cerevisiae [1]; [6]) | protein stability index (Saccharomyces cerevisiae [1]; [7]) | protein stability index (Saccharomyces cerevisiae [1]; [8]) | protein stability index (Saccharomyces cerevisiae [1]; [9]) | protein stability index (Saccharomyces cerevisiae [2])
21 | AYFPSQRVHHLM | 0.637 ± 0.046 | 0.706 ± 0.066 | 0.661 ± 0.016 | 0.765 ± 0.013 | 0.144 ± 0.0018 | 0.174 ± 0.033 | 0.374 ± 0.03 | 0.333 ± 0.017
22 | SRCLALVICYRV | 0.539 ± 0.041 | 0.582 ± 0.031 | 0.439 ± 0.021 | 0.5979 ± 0.0043 | 0.152 ± 0.016 | 0.185 ± 0.024 | 0.3 ± 0.0041 | 0.265 ± 0.011
23 | RPNTFRTRAKAL | 0.636 ± 0.013 | 0.712 ± 0.019 | 0.619 ± 0.026 | 0.734 ± 0.017 | 0.145 ± 0.003 | 0.168 ± 0.039 | 0.333 ± 0.057 | 0.274 ± 0.081
24 | VYVLVFNMENIS | 0.5603 ± 0.0009 | 0.588 ± 0.0096 | 0.382 ± 0.03 | 0.616 ± 0.011 | 0.382 ± 0.0068 | 0.401 ± 0.033 | 0.585 ± 0.036 | 0.4891 ± 0.0047
25 | ARLTNYFVEWLS | 0.667 ± 0.012 | 0.757 ± 0.012 | 0.657 ± 0.0066 | 0.746 ± 0.012 | 0.358 ± 0.023 | 0.383 ± 0.029 | 0.592 ± 0.012 | 0.4612 ± 0.00085
26 | WLFTSVTVFTFL | 0.21366 ± 0.00013 | 0.299 ± 0.02 | 0.221 ± 0.023 | 0.421 ± 0.021 | 0.181 ± 0.0045 | 0.196 ± 0.013 | 0.347 ± 0.016 | 0.296 ± 0.045
27 | PPPPTPRPLLPP | 0.662 ± 0.011 | 0.7253 ± 0.0031 | 0.677 ± 0.034 | 0.73 ± 0.021 | 0.666 ± 0.039 | 0.667 ± 0.011 | 0.697 ± 0.012 | 0.449 ± 0.029
28 | VHHAFLPYTLVR | 0.502 ± 0.021 | 0.57 ± 0.011 | 0.375 ± 0.028 | 0.591 ± 0.017 | 0.361 ± 0.011 | 0.407 ± 0.019 | 0.5709 ± 0.0043 | 0.485 ± 0.01
29 | WVWCVCVVVWCG | 0.111 ± 0.0046 | 0.191 ± 0.051 | 0.153 ± 0.026 | 0.256 ± 0.013 | 0.135 ± 0.0037 | 0.14 ± 0.02 | 0.195 ± 0.026 | 0.25425 ± 0.00016
30 | ALWRAWLRLRIW | 0.517 ± 0.054 | 0.591 ± 0.03 | 0.582 ± 0.019 | 0.733 ± 0.016 | 0.143 ± 0.0041 | 0.124 ± 0.0037 | 0.0985 ± 0.012 | 0.205 ± 0.0025
31 | VFWVLVSFLFYV | 0.339 ± 0.011 | 0.406 ± 0.012 | 0.307 ± 0.028 | 0.4496 ± 0.0013 | 0.281 ± 0.014 | 0.3 ± 0.018 | 0.4059 ± 0.0036 | 0.346 ± 0.023
32 | FELVWLCIIGAL | 0.415 ± 0.012 | 0.507 ± 0.031 | 0.331 ± 0.031 | 0.516 ± 0.01 | 0.106 ± 0.0082 | 0.122 ± 0.019 | 0.2271 ± 0.0017 | 0.173 ± 0.04
33 | YFVLVRLICFLL | 0.347 ± 0.0092 | 0.438 ± 0.0066 | 0.289 ± 0.035 | 0.472 ± 0.01 | 0.194 ± 0.011 | 0.216 ± 0.039 | 0.373 ± 0.013 | 0.244 ± 0.085
34 | QARQLEMYMVVF | 0.638 ± 0.066 | 0.532 ± 0.12 | 0.403 ± 0.041 | 0.579 ± 0.02 | 0.379 ± 0.015 | 0.418 ± 0.013 | 0.544 ± 0.0069 | 0.432 ± 0.0045
35 | VFGSRCLLTVVV | 0.472 ± 0.0098 | 0.477 ± 0.023 | 0.367 ± 0.032 | 0.5185 ± 0.0017 | 0.336 ± 0.018 | 0.358 ± 0.043 | 0.504 ± 0.0071 | 0.438 ± 0.043
36 | LVLGLYGVWLVV | 0.262 ± 0.005 | 0.179 ± 0.022 | 0.254 ± 0.026 | 0.4104 ± 0.0027 | 0.355 ± 0.015 | 0.243 ± 0.024 | 0.3561 ± 0.0035 | 0.345 ± 0.015
37 | GWLSVLVYFLSG | 0.471 ± 0.025 | 0.545 ± 0.03 | 0.387 ± 0.034 | 0.5619 ± 0.0042 | 0.284 ± 0.0044 | 0.326 ± 0.0091 | 0.481 ± 0.022 | 0.408 ± 0.03
38 | LGNVTDVMHRLS | 0.645 ± 0.038 | 0.739 ± 0.0094 | 0.6481 ± 0.0036 | 0.734 ± 0.023 | 0.328 ± 0.0097 | 0.379 ± 0.012 | 0.617 ± 0.012 | 0.48 ± 0.0083
39 | VCLFFFGYWCCL | 0.565 ± 0.066 | 0.555 ± 0.026 | 0.469 ± 0.015 | 0.566 ± 0.0067 | 0.493 ± 0.017 | 0.479 ± 0.0093 | 0.53 ± 0.011 | 0.501 ± 0.024
